# Experiment: yeast display, Sf9 membrane polyspecificity reagent, FACS + sequencing; frameworks hold sequencing errors
# Summary of the method: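 Nanobodies from a synthetic yeast display library (Saccharomyces cerevisiae BJ5465), induced 36–48 hours with galactose, were stained 1 hour at 4 °C with 10% biotinylated, detergent-solubilized Sf9 membrane reagent, enriched on streptavidin microbeads, then FACS-sorted. Anti-HA (expression) and streptavidin (reagent binding) fluorescence set low and high (top ~1%) gates. Polyreactivity labels come from the gate of origin. Genes were colony-PCR amplified, MiSeq 2 × 250 sequenced and filtered by CDR length.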
row,Sequence,polyreactivity (PSR sort gate)
1,QVQLVESPGGLVKAGGSLRLSCDASGRTFYGYAMGWYRQPPGKEREFVAAITWSGSSTNYADSVKGRFTISRDNATNSVYLQMNSLKPDDTAVYYCAASYYAPYWSMDNWGQGTQETVSS,high polyreactivity
2,QVQLVESRAGLVQAGGSLRLSCAASGSTFGYYTMGWYRQAPGKERELVAAITWSGGSSYYADSVKGRFTISRDNAKKTVYLEMNSLKAEDTAVYFGAADDYWTPFGYWGQGTQVTVSA,low polyreactivity
3,QVQLVESRGALVQAGGSLRLSCAASGYIFRAYAMGWYRPAPGKERELVAAISSRGGSTYYADSVKGRFTISRDNAKNTVYLQMNSLKPEDTAVYYCAAAYRQPYIGYGYWGQGTQVTVSS,high polyreactivity
4,QVQLVESRGALVQAGGSLRLSCAASGYIFYSNAMRWYRQEPGKERELVAAITSGRGSTYYADSVKGRFTISRDNAKNTVYLQMNSLIPEDTAVYYCDVSIGRYPYRYGYWGQGTQVTVSS,high polyreactivity
5,QVQLVESRGGLVPAGGSLRLSCAASGITFYHYAIGWYRQAPVKERELVAAISRSGGSTSYADSVKGRLTISRDNAKITVYLEMNSLIPEDTAVYYCAARLVRESEPLGYWGQGTQVTVSS,high polyreactivity
6,QVQLVESRGGLVQAGCSLRLRCAASGFIFSWYAMGWYRHAPGKERELDAAISASGTSTYYADSVKGRFTISRDNAKNTVYLQMNSLKPEDTAVYYCAAEFVTEYLYGFVYEYDSWGQGTQVTVSS,low polyreactivity
7,QVQLVESRGGLVQAGGRLRLSCAASGIIFPRNAMGWYRQAPGKERELVAAITNTGSTKYADSVKGRFTISRDNEKNTVYLHMNSLKPEDTAVYFCAKELCSVPSPSLYDYWGQGTQVTVSS,low polyreactivity
8,QVQLVESRGGLVQAGGSLRLSCAASGFIFWRYAMGWYRQAPGKERELVASITYSGGRTYYADSVKGRFTISRDNAKNTVYLQMNILKPEDTAVYYCATARYRYHYYSWGQGTQVTVSS,high polyreactivity
9,QVQLVESRGGLVQAGGSLRLSCAASGFTFYSNAMGWYRQAPGKERELVAAIAKRGGSTYYADSVKGRFTISRDNAKNTVYLQMISLKPEDTAVYYCNKDYYARKYDYWGQGTLVTVSS,high polyreactivity
10,QVQLVESRGGLVQAGGSLRLSCAASGITFDVYDMGWYRQAPGKERELVASINSGGGITYYADSVKGRFTISRDNAKNTVYLQMNSLKPEDTAVFYCADDTWGSSWYDLFRETSDYWGQVTQVTVSS,low polyreactivity
11,QVQLVESRGGLVQAGGSLRLSCAASGITFYTYTMGWYRQAPGKERELVAVISASGARTYYADSVKGRFTISRDNAKNTVYLQMNSLKPEDTAVYYFAARSFYISPWRFDYWGQGTQVTVSS,high polyreactivity
12,QVQLVESRGGLVQAGGSLRLSCAASGITSPYAMGWYRQAPGKERELVAAISWSGSSTYYADSVKGRFTISRDNAKNTVYLQMNSLKPQDTAVYYCNTVGTRQPMDYWGQGTQVTVSS,high polyreactivity
13,QVQLVESRGGLVQAGGSLRLSCAASGLIFWFNTMGWYRQAPGTERELVAAITSGGGSTYYADSVKGRFTISRDIAKNTVYLQKNSLKPEDTAVYYCNAGAGRWRARQWHDYWGQGTQVTVSS,low polyreactivity
14,QVQLVESRGGLVQAGGSLRLSCAASGRIFDVYAMVWYRQAPGKERELVAAITWSGTSTYYADSVKGRFTISRDNAKNTVYVQMNSLKPEDTAVYYCAAEVAYTDTEYFWYYYWGQGTQVTVSS,high polyreactivity
15,QVQLVESRGGLVQAGGSLRLSCAASGRIFNVYAMGWYRQAPGKERELVAGISGSGGRTYYADSVKGRFTISRDNAKNTVYLQMNSLKPEDTAVYYCNTVRHYSSWGQGTQVTVSS,high polyreactivity
16,QVQLVESRGGLVQAGGSLRLSCAASGRIFYVNAMGGYRQAPGKERELVAAIDVSGGRTYYADSVKGRFTISRDNAKNTVYLQMNSLKPEDTAVYYCAALKYRWTPYYPYDYWGQGTQVTVSS,low polyreactivity
17,QVQLVESRGGLVQAGGSLRLSCAASGRTFAVYALGWYRQAPGKEWELVAAITLGASRTYYADSVKGRFTISRDNAKNTVYLQMNSLKPEDTAVYSCNAVGRRNVDSSLNDYWGQGTQVTVSS,low polyreactivity
18,QVQLVESRGGLVQAGGSLRLSCAASGRTFDGYVMGWYRQAPGKERELVAAISWGGSYTYYADSVKGRFTISRDNAKNTVYLQMNSLKPEDTAVYYCAKDTVPNVRDYWGQGTQVTVSS,low polyreactivity
19,QVQLVESRGGLVQAGGSLRLSCAASGRTFGIYTMGWYRQAPGKERKLVAAISKRGSSTYYADSVKGRFTISRDNANNTVYLQMNSLKPEDTAVYYCAATRRYRYNWGQGSQVTVSS,high polyreactivity
20,QVQLVESRGGLVQAGGSLRLSCAASGRTFGRNTMGWYRQAPGKERELVAAISISGTSTYYADSVKGRFTISRDNAKNTVSLQMNSLKPEDTAVYDCAARYIRGSYGMGYWGQGTQVTVSS,high polyreactivity
21,QVQLVESRGGLVQAGGSLRLSCAASGSIFYRNVMGWYTQAPRKEREWVAAISGRGGSTYYADSVKGRFTISRDNAKNTVYLQFTSLKPEDTAVYYCATELTYRHGYWGQGTQVTVSS,high polyreactivity
22,QVQLVESRGGLVQAGGSLRLSCAASGSTFGQYPMGSYRQEPGKERELVATITSPGSTNYADSVKGRFTISRDNAKNTVYFQMNSLKPEDSAVYYCNAVTGYWDGTEARQPYDYWGQGTQVTVSS,low polyreactivity

row,Sequence,polyreactivity (PSR sort gate)
1,QVQLVESRGGLVQAGGSLRLSCAASGSTFRTNTMGWSRQAPGKEREVVADISWSGGSTDYADSVKGRFTISRDNAKNTVYLQMNSLKPEDTAVYFCAKDGAFWTYYSWYDYWGQGTQVTVSS,low polyreactivity
2,QVQLVESRGGLVQAGGSLRLSCAASGSTFTYNAMGWYRQAPGKERELVASINSGGSTYYADSVKGRFTISRDNAKNNFYLQMNSLKPEDTAVYYCAKDLHLDSYASDYWGQGTQVTVSS,low polyreactivity
3,QVQLVESRGGLVQAGGSLRLSCAASGSTRGSNAMGRYRQAPGKEMELVAAITWSGGTTYYADSVKGRFTISRDNAKNTVYLQMHSLKPEDTSVYYCATGQSVIYRYEYWGQGTQVTVSS,low polyreactivity
4,QVQLVESRGGLVQAGGSLRLSCAATGSIFNNYDMGWYRQAPGKERELVADISRGGDTNYADSVKGRFTISRDNAKYTVYLQMTSLNPVDTAVYYCNATYWILDSPWRRETFDYWRQGTQVTVSS,low polyreactivity
5,QVQLVESRGGLVQAGGSLRLSCPASGFTFVNYAMGWYRQAPGKERELVAAIRRSGSRTYYADSVKGRFTISRDNAKNTVYLQMNSLKPEVTAVYYCNAPVVYFWPLNFDYWGQGTQVTVSS,low polyreactivity
6,QVQLVESRGGLVQAGGSLRLSCPDSGSNLLSYAMGWYRQAPGKERELVAAITTRDGSTYYADSVKGRFTISRDNAKYTVYLQMTSLKPEDTAVYYCNVDARSSYDYWGQGTQVTVSS,low polyreactivity
7,QVQLVESRGGLVQAGGSLRLSFAASGIIFADYAMGWYRQAPGKERELVAAISSGDSTYYADSVKGRFTISRDNAKNTVYLQMNSLKPEDTAVYYCAARLYRNKYRIAKMNYWGQGTQVTVSS,high polyreactivity
8,QVQLVESRGGLVQAGGSLRLSSAASGFTFHGNAMRWYRQAPGKERQLVAGISSSGASTYYADSVKGRFTISRDNAKNTVYLQMNILKPEDTAVYYCAVRYYGRYLRYNYCGQGTQVTVSS,high polyreactivity
9,QVQLVESRGGLVQAGGSLRLSSAASGFTFRYYLMGWYRQAPRKERELVAAITWSGGTTNYADSVKGRFTISRDNAKNSVYLQMNSLKPEDTAVYYCNAARSRGANRVPPYRLYYWGQGTQVTVSS,low polyreactivity
10,QVQLVESRGGLVQAGGSLRLSSAASGITFGRNPMGWYRQAPGKERELVAAIESGGNTYADSVKGRFTISRDNAKNTVYLQMNSLKPEDTAVYYCAVDGGEFSSYGYWGQGTQVTVSS,low polyreactivity
11,QVQLVESRGGLVQAGGSLRLTCAASGSTFAPNTMGWYRQAPGQERELVARITSSDGSTTYADSVKGRFTISRDNAKTTVYLQMNSLKPEHTAVYYCAADYGRRWGYDYWGQGTQVTVSS,low polyreactivity
12,QVQLVESRGGLVQAGRSLRLSCAASGRTFHRNTLGRYRQAPGKERELVAAITGDGRTNYADSVKGRFTISRDNAKNTVYLLMNSLKPEDTAGYYCAAQYYYSEAGRDYWGQGTQVTVSS,low polyreactivity
13,QVQLVESRGRLLQAGGSLRLSCAASGRISHINAMGCSIQAPGKERELVAGIRGRGGSTYYADSVKGRFTISRDNAKNSVYLQMNSLKPEDTEVYYCAARGWELIRTDPFDYWGQGSQVTVSS,high polyreactivity
14,QVQLVESRGVLDQARGSLRLSCAATGSIFKPYAMGWYRQEPGKEMELVAAISGIGGSTYYADSVKGRFTIARDNAKNTVYLQMNSLKPEVTAVYYCAALTGFYNLRPYGYWGQGTQVTVSS,high polyreactivity
15,QVQLVESRGVLVQAGGSIRLSCAASGFSIDYYAMGWYRPAPGKERELVAAITTSGGRTYYADSVKGRFTIARDYAKNTVYLQMNSLKPEDTAVYYCAVVTWIYGTRFNYWGQGTQVTVSS,high polyreactivity
16,QVQLVESRVGLVKAGGSLRLSCAASGITLYWYAMGWYRQAPGKESELVAAISRRGGTTYYSDSVKGRFTISRDNAKNTVYLQMNILKPEDTAVYYCAKAPDTQTSWSRQEGNYWGQGSQVTVSS,low polyreactivity
17,QVQLVESSGGLVQAGGSLRLSCAASGSIFLYNAMGWYRKAPGTEREMVAAISKSGGSTYYADSVKGRFTISRDNAKYTVYLQMNSLKPEDTAVYYCAAGYGRRIRYGCEYDYWGQGTQVTVSS,low polyreactivity
18,QVQLVESVGALVQARGSLRLSCAASGFTFRPYAMGWYRQAPGKERELVAAITRSGGSTYYADSVKGRFTISRDTAKNTVYLQMNSLKPEDTAVYYCAARFARSEYDYWGQGTQVTVSS,high polyreactivity
19,QVQLVESVGCLVQAGGSLRLSCAASGRTVVYGYAMGWYRQDPGKERELVAAITSGGSTNYADSVKGRFTISRDNAKNTVYLQMNSLNPEDSAVYYCNAGTVLISTYDYWGQGTQVTVSS,high polyreactivity
20,QVQLVESVGGFVQAGGSLRLSCAASGRIFGTYAMGWYRQAPGKERELVAAITRGGTTYYADSVKRRFTISRDNAKNTVYLQMNSLKPEDTAVYDCATGPAIRYDYWGQGTQVTVSS,low polyreactivity
21,QVQLVESVGGIVQAGGSLRLSCDASGRTFGRSAMGSYRQAPGKERELVAGISRAGDSTHYAESVKGRCTISRDNAKNTVYLQMNSLKPEDTAVYYCNKETPTIGARKYEYWGQGTQVTVSS,low polyreactivity

# From the nanobody polyreactivity screen of Harvey et al. (2022)
